Test results published in patent CN113150161A.

Target: 小菜蛾钙黏蛋白毒素结合区(PxCad-TBR) (小菜蛾 (Plutella xylostella))
Assay: competitive ELISA on coated PxCad-TBR, 500 μg/mL Cry2Aa, competitor 2G4 (3.75 μg/mL, molar ratio 294:1)

Work on “活化Cry2Aa毒素(分子量68 kDa) (from UniProt P0A377 50-633)” yielded a 抑制作用 (%) of 44%.
